According to PMC10294441, “Characterization of 17β-estradiol-degrading enzyme from Microbacterium sp. MZT7 and its function on E2 biodegradation in wastewater” (Microbial Cell Factories, 2023):

Substrate: C[C@]12CC[C@@H]3c4ccc(O)cc4CC[C@H]3[C@@H]1CC[C@@H]2O
Test: HPLC of estrone (E1) formation
Assay type: biochemical, Microbacterium resistens
Details: NAD+ (500 μM in the general assay), pH 7, MSM, 30 °C in the general assay, E2 0.018–0.40 mM

B1: 17β-HSD-0095 (Microbacterium resistens) (protein)
chain: MPTDPALPDPEPTKGNTMNRYEGRRALVTGGGSGIGQATVLRMLAEGGRVVAADVSPAGLADTVEKAGNAAARLTTVEVNVADEASVKAAVATAVDALGGLDVLVNAAGILRSSHTAETTLEQFETILRVNLVGTFLMIRESIPALLDGQDAAVVNFSSTSAMFAHPYMAAYAASKGGVQSMTHALAAEYAKQGIRFTAVQPGSISSGMTDGSGRSGQSAGPGLPEDADMSLFLKLAPAIGQGFAGPEAVAGVVAMLASADGAFITGTEVRIDGGTHF
notes: about 35 kDa on SDS-PAGE
- Km: 480 µM
